This passage reports fold reduction of binding against full-length Tnp3 and fold increase of binding with RanGTP against without results from PMC3161976.

Assay [1] addresses GST-Tnp3 DC825 deletion mutant (human) (UniProt Q9Y5L0). The assay is described as follows: pull-down; GST-Tnp3, GST-Tnp3 DC825 or GST-Xpo-t held on glutathione-Sepharose 4B beads, with purified HIV-1 vector disrupted by gentle sonication (50 µl), with or without RanQ69L-GTP; binding buffer 50 mM Hepes pH 7.3, 200 mM NaCl, 2 mM Mg(Ac)2, 10 µM GTP; 4°C; silver stain and Western blot with anti-capsid antibody, ImageJ quantification. A general note: Immunoblotting shows a protein as a band on a membrane.

Assay [2] concerns the target GST-Tnp3 (Transportin 3), full length (human) (UniProt Q9Y5L0). Described as above.

Sequence of GST-Tnp3 (Transportin 3), full length (human) (Q9Y5L0 whole entry): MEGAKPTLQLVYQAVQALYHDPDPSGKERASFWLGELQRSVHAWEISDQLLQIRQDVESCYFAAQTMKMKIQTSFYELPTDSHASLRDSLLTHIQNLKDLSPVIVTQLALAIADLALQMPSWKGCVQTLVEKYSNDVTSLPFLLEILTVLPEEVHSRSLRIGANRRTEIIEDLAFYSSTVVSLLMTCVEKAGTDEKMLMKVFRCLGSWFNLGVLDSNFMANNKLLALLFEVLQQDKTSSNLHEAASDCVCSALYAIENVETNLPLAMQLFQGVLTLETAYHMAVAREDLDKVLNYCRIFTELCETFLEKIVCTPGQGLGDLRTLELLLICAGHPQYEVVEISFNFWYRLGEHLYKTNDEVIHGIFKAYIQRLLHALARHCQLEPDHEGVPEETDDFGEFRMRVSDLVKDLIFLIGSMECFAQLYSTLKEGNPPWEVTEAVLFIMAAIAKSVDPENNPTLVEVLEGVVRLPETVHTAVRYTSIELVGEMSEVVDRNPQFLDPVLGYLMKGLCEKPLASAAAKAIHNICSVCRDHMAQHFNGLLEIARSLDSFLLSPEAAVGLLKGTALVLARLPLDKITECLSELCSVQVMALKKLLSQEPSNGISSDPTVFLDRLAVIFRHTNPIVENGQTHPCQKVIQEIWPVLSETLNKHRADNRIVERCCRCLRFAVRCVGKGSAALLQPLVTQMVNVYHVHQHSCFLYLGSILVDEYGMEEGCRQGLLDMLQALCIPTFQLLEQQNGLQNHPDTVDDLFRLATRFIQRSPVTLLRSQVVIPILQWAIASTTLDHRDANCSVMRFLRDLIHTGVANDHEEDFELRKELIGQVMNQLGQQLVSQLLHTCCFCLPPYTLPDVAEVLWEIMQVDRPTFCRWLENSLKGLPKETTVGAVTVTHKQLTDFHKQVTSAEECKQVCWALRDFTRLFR
Sequence of GST-Tnp3 DC825 deletion mutant (human) (Q9Y5L0 1-825, stated change not applied): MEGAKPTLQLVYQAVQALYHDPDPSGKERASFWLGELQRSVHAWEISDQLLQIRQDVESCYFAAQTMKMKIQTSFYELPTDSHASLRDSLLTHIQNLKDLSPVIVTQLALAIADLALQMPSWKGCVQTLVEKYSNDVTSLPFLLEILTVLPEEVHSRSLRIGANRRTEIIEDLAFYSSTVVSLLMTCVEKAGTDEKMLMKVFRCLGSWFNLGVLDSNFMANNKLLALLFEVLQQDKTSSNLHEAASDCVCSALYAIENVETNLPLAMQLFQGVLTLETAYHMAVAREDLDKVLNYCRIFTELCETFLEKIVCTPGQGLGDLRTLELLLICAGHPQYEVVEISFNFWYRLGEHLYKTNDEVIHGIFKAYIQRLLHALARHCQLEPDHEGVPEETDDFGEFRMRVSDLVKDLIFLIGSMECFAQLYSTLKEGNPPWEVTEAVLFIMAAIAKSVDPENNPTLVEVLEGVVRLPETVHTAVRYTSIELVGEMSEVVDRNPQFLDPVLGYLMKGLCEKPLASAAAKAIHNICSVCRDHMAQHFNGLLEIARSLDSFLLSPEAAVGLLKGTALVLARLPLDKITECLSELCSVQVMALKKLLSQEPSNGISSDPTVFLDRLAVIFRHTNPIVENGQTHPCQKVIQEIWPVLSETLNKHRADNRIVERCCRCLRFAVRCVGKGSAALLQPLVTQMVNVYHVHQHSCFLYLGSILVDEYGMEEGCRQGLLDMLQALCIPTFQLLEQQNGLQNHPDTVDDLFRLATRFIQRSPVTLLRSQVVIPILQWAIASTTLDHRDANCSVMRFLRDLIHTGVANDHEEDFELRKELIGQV

Consider “HIV-1 capsid protein (CA, p24) of purified HIV-1 vector particles (natural protein)”, for which the fold reduction of binding against full-length Tnp3 in assay [1] amounted to 3 fold. For the same substance, the fold increase of binding with RanGTP against without in assay [2] amounted to 2.5 fold.
